In PMC10246721, “Cryo-EM structures for the Mycobacterium tuberculosis iron-loaded siderophore transporter IrtAB” (Protein & Cell, 2022):

Target: T1, IrtA, full length (subunit of full-length Mtb IrtAB) (Mycobacterium tuberculosis H37Rv, UniProt P9WQJ9 1-859)
T1 construct: also called Rv1348
T1 sequence: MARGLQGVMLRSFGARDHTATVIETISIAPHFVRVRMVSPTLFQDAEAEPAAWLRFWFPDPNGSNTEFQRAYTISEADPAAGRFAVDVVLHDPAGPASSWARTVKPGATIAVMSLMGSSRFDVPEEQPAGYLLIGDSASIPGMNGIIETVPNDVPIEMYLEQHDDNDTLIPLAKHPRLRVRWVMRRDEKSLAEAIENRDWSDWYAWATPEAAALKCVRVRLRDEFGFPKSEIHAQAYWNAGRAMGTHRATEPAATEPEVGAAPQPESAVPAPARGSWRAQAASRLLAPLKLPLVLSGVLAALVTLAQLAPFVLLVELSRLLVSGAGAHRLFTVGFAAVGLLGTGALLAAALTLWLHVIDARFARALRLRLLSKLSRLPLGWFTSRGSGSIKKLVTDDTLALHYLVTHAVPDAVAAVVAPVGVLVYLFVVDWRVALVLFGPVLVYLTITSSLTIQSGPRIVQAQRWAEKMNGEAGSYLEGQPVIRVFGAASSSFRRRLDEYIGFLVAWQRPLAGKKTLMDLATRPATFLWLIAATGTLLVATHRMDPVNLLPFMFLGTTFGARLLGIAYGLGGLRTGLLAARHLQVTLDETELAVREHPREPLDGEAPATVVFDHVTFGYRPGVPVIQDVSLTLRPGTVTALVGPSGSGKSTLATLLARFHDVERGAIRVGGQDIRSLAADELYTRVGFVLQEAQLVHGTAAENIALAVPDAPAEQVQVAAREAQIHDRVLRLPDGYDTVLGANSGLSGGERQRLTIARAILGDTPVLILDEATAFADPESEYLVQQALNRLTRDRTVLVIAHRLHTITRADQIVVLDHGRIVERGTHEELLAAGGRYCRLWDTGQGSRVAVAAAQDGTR
Test: cryo-EM structure; full-length IrtAB without nucleotide, in digitonin, 20 mmol/L MES pH 6.5, 150 mmol/L NaCl; inward-facing
Conditions: both partners purified

B1: IrtB with C-terminal 10x His tag (subunit of Mtb IrtAB) (natural protein)
chain: MIRTWIALVPNDHRARLIGFALLAFCSVVARAVGTVLLVPLMAALFGEAPQRAWLWLGWLSAATVAGWVLDAVTARIGIELGFAVLNHTQHDVADRLPVVRLDWFTAENTATARQAIAATGPELVGLVVNLVTPLTSAILLPAVIALALLPISWQLGVAALAGVPLLLGALWASAAFARRADTAADKANTALTERIIEFARTQQALRAARRVEPARSLVGNALASQHTATMRLLGMQIPGQLLFSIASQLALIVLAGTTAALTITGTLTVPEAIALIVVMVRYLEPFTAVSELAPALESTRATLGRIGSVLTAPVMVAGSGTWRDGAVVPRIEFDDVAFGYDGGSGPVLDGVSFCLQPGTTTAIVGPSGCGKSTILALIAGLHQPTRGRVLIDGTDVATLDARAQQAVCSVVFQHPYLFHGTIRDNVFAADPGASDDQFAQAVRLARVDELIARLPDGANTIVGEAGSALSGGERQRVSIARALLKAAPVLLVDEATSALDAENEAAVVDALAADPRSRTRVIVAHRLASIRHADRVLFVDDGRVVEDGSISELLTAGGRFSQFWRQQHEAAEWQILAE
notes: also called Rv1349
B1: binds.
